Molecular target: MtAHL1 (Medicago truncatula) (UniProt G7JGG2)
Assay: EMSA
Conditions: EMSA as in Chen (ref. 37), 10 ng probe and 200 ng protein (titration 0-300 ng), SYBR Gold stain; binding buffer, pH and temperature not stated; protein eluted …

Sequence of MtAHL1 (Medicago truncatula) (G7JGG2 entry or part of it): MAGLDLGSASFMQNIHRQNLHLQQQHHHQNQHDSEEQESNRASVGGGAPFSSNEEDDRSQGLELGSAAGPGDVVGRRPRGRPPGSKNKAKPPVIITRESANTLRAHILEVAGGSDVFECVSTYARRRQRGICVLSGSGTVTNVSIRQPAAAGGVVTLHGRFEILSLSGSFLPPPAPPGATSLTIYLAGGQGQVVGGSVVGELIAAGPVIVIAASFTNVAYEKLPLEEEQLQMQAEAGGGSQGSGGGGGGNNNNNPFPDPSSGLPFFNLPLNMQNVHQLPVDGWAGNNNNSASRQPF

| Sequence | binding |
| --- | --- |
| GAAAGTAATAATTTTGAGACATCTATTCTATGAGCCAAAGAGACAACTACGATACATCAACGTATTAAAGAGACATTTAATAATTATTTTAATTTTCAAAAAGTATTAATTAC (double strand) [probe C] | binds |
| CTTTCTTTTATACAAATCATAAAATTATTACTTATAAATAGAGCTCATTATTGTTTAACAACCTTTCATTATTATTTTTTATTTCTTAGCCAGCCTTTCATAATAGAG (double strand) [probe B] | binds more weakly |
| CCCATTGTTTTTCCCCTTTGCGTGAAATAAGTGTAAAATTATTTTATCACTTTATATAGTAAAAAATCAAATGATATGTTTACATCAACAAAACAGTTTTTAATAATTATGTTGTTGTAATTAATAC (double strand) [probe D] | binds more weakly |
| GAGATAGGAAAACCAATATTATATTATGTTGATATGAGTGGGTGTGGAATCACACAACGTGAATAAGGTCTCTTGTTTGAGTCTTGTGGTTAAATAAAACGTG (double strand) [probe A] | binds more weakly |
| GACAACTACGATACATCAACGTATTAAAGAGACATTTAATAATTATTTTAATTTTCAAAAAGTATTAATTACAACAACATAATTATTAAAAACTGTTTTGTTGATGTAAACATATC (double strand) [probe G] | binds |
| GTTTAACAACCTTTCATTATTATTTTTTATTTCTTAGCCAGCCTTTCATAATAGAGATAGGAAAACCAATATTATATTATGTTGATATGAGTGGGTGTGGAATCA (double strand) [probe E] | binds more weakly |
| GTTAAACAATAATGAGCTCTATTTATAAGTAATAATTTTATGATTTGTATAAAAGAAAGTAATAATTTTGAGACATCTATTCTATGAGCCAAAGAGACAAC (double strand) [probe F] | binds more weakly |
